Data: patent JP2021054739A, “ビオチン改変二量体とフタロシアニン染料とのコンジュゲート” (dated 2021)

T1: CEACAM5 (Recombinant Human CEACAM-5/CD66e Protein) (Homo sapiens, UniProt P06731)
T1 construct: purchased R&D SYSTEMS
T1 sequence (P06731 35-702): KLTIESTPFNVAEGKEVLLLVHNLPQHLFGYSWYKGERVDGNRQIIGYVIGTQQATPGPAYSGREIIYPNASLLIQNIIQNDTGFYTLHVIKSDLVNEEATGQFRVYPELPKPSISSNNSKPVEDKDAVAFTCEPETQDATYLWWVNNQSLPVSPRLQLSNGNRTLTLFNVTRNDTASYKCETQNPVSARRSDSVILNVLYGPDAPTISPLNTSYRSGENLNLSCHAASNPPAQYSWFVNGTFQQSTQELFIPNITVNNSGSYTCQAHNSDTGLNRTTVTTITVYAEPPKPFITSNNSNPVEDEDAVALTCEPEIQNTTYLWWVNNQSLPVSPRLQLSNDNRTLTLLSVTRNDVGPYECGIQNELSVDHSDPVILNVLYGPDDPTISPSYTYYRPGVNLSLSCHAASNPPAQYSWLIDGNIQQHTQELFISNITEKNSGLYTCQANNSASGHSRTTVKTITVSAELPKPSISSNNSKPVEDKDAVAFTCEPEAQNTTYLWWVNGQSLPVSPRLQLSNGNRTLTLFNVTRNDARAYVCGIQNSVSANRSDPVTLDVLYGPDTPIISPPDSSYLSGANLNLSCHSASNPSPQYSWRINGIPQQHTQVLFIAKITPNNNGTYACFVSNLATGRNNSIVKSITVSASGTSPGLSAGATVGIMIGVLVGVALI


Legend:
[1] = molecular target: T1, CEACAM5 (Recombinant Human CEACAM-5/CD66e Protein); test: SPR (Biacore T200), CEA-V2122 on immobilised CEACAM5; assay type: binding
[2] = tested on: CEACAM5 on CEACAM5-positive MKN-45 cells and CEACAM5-negative DLD1 cells [CEACAM5陽性のヒト胃がん由来MKN-45細胞とCEACAM5陰性のヒト結腸がん由来DLD1細胞]; test: Cell staining with FITC-labelled CEA-V2122 (In Cell Analyzer 6000); assay type: cell-based, human
[3] = SPR, Single-Cycle Kinetics, Bivalent Analyze fit, analyte CEA-V2122 1E-08 M to 6.25E-10 M

| KD (kd1/ka1) ([1]; SPR, Single-Cycle Kinetics, Bivalent Analyze fit, KD = kd1/ka1) | ka1 [1, 3] | kd1 [1, 3] | binding to CEACAM5 (in words) ([1]; from sensorgram and KD value, Fig. 3) | Molecule | recognition of CEACAM5 on the cell membrane surface (in words) ([2]; 20 nM CEA-V2122-FITC, 4℃, 30 min, Fig. 5) | behaviour of CEACAM5 after CEA-V2122-FITC binding (in words) ([2]; MKN45 cells, time series, Fig. 6) |
| --- | --- | --- | --- | --- | --- | --- |
| 1.078E-12 | 3.208E+5 | 3.461E-7 | 強く結合する | CEA-V2122: anti-CEACAM5 scFv joined by amino acid linker GGGGSGGGG to streptavidin variant V2122 (SEQ ID NO: 3) (protein) QVKLEQSGAEVVKPGASVKLSCKASGFNIKDSYMHWLRQGPGQRLEWIGWIDPENGDTEYAPKFQGKATFTTDTSANTAYLGLSSLRPEDTAVYYCNEGTPTGPYYFDYWGQGTLVTVSSGGGGSGGGGSGGGGSENVLTQSPSSMSVSVGDRVNIACSASSSVPYMHWLQQKPGKSPKLLIYLTSNLASGVPSRFSGSGSGTDYSLTISSVQPEDAATYYCQQRSSYPLTFGGGTKLEIKGGGGSGGGGAEAGITGTWSDQLGDTFIVTAGADGALTGTYENAVGGAESRYVLTGRYDSAPATDGSGTALGWTVAWKNNSKNAHSATTWSGQYVGGADAKINTQWLLTSGTTNANAWKSTLVGHDTFTKVKPSAASHHHHHH | – | – |
| – | – | – | – | CEA-V2122-FITC: CEA-V2122 labelled with FITC (Fluorescein Labeling Kit - NH2) (conjugate) QVKLEQSGAEVVKPGASVKLSCKASGFNIKDSYMHWLRQGPGQRLEWIGWIDPENGDTEYAPKFQGKATFTTDTSANTAYLGLSSLRPEDTAVYYCNEGTPTGPYYFDYWGQGTLVTVSSGGGGSGGGGSGGGGSENVLTQSPSSMSVSVGDRVNIACSASSSVPYMHWLQQKPGKSPKLLIYLTSNLASGVPSRFSGSGSGTDYSLTISSVQPEDAATYYCQQRSSYPLTFGGGTKLEIKGGGGSGGGGAEAGITGTWSDQLGDTFIVTAGADGALTGTYENAVGGAESRYVLTGRYDSAPATDGSGTALGWTVAWKNNSKNAHSATTWSGQYVGGADAKINTQWLLTSGTTNANAWKSTLVGHDTFTKVKPSAASHHHHHH | 細胞膜表面のCEACAM5を特異的に認識する | 細胞膜表面に滞留する |
